Assay results taken from paper PMC4682053, “Mechanisms of assembly and genome packaging in an RNA virus revealed by high-resolution cryo-EM” (Nature Communications, 2015).

Biological target: the molecule itself
Experiment: cryo-EM structure; CPMV eVLP purified from N. benthamiana leaves, ~4.2 mg/ml on the grid; single particles, icosahedral symmetry imposed; 3.04 Å; atomic model built de novo

B1: Cowpea mosaic virus Small (S) coat protein with its C-terminal extension, in the empty virus-like particle (eVLP) (natural protein)
chain: GPVCAEASDVYSPCMIASTPPAPFSDVTAVTFDLINGKITPVGDDNWNTHIYNPPIMNVLRTAAWKSGTIHVQLNVRGAGVKRADWDGQVFVYLRQSMNPESYDARTFVISQPGSAMLNFSFDIIGPNSGFEFAESPWANQTTWYLECVATNPRQIQQFEVNMRFDPNFRVAGNILMPPFPLSTETPPLLKFRFRDIERSKRSVMVGHTATAA
notes: Small (S) coat protein of cowpea mosaic virus, cut from the RNA-2-encoded precursor VP60 by the 24K proteinase; C-terminal 24 amino acids (190-213) kept; modelled up to Arg202, without 184-189; numbers count on: the S subunit; the particles imaged kept it; also called S subunit; small coat protein; source: N. benthamiana, agroinfiltrated with pEAQ-HT-VP60 and pEAQ-HT-24K or pEAQexpress-VP60-24K; …
- stoichiometry N: 5
